Reference: paper PMC7801659, “Shared and divergent phase separation and aggregation properties of brain-expressed ubiquilins” (Scientific Reports, 2021)

B1: UBQLN2^430–624 (domain or fragment, human)
chain: WLPAFLQQMQNPDTLSAMSNPRAMQALMQIQQGLQTLATEAPGLIPSFTPGVGVGVLGTAIGPVGPVTPIGPIGPIVPFTPIGPIGPIGPTGPAAPPGSTGSGGPTGPTVSSAAPSETTSPTSESGPNQQFIQQMVQALAGANAPQLPNPEVRFQQQLEQLNAMGFLNREANLQALIATGGDINAAIERLLGSQPS
notes: one tryptophan added at the N-terminus with the 6xHis tag (His6-W-); ubiquilin-2 (UBQLN2, PLIC-2), residues 430-624, from the fourth STI1 motif to the end of the protein, includes the PXX domain and the UBA domain; Plasmid pET3a-His6-W-UBQLN2^430–624 bought from Genscript; also called His6-W-UBQLN2^430–624; C-terminal UBQLN2 construct; source: E. coli Rosetta (DE3), purified (Ni-NTA, flow-through …)
B2: UBQLN4^444–601 (domain or fragment, human)
chain: WLPVFLQQMQNPESLSILTNPRAMQALLQIQQGLQTLQTEAPGLVPSLGSFGISRTPAPSAGSNAGSTPEAPTSSPATPATSSPTGASSAQQQLMQQMIQLLAGSGNSQVQTPEVRFQQQLEQLNSMGFINREANLQALIATGGDINAAIERLLGSQLS
notes: one tryptophan added at the N-terminus with the 6xHis tag (His6-W-); also called C-terminal UBQLN4 construct; source: E. coli Rosetta (DE3), purified (Ni-NTA, dialysis); not shown: His6, N-terminal, kept
B3: UBQLN1^438–589 (domain or fragment, human)
chain: WLPTFLQQMQNPDTLSAMSNPRAMQALLQIQQGLQTLATEAPGLIPGFTPGLGALGSTGGSSGTNGSNATPSENTSPTAGTTEPGHQQFIQQMLQALAGVNPQLQNPEVRFQQQLEQLSAMGFLNREANLQALIATGGDINAAIERLLGSQPS
notes: one tryptophan added at the N-terminus with the 6xHis tag (His6-W-); also called C-terminal UBQLN1 construct; source: E. coli Rosetta (DE3), purified (Ni-NTA, dialysis); not shown: His6, N-terminal, kept
B4: UBA^581–624 (domain or fragment, human)
chain: WRFQQQLEQLNAMGFLNREANLQALIATGGDINAAIERLLGSQPS
notes: one tryptophan added at the N-terminus with the 6xHis tag (His6-W-); ubiquilin-2 (UBQLN2), UBA domain, residues 581-624; The methods on expression and purification name only the three longer constructs; also called His6-W-UBQLN2^581–624(UBA); isolated UBA domain from UBQLN2; source: recombinant, plasmid for bacterial expression (pET3a)

Target: the molecule itself
Test: ThioflavinT aggregation assay + transmission electron microscopy; 10 µM protein alone, 10 µM ThT, 0.1 M NaCl, 1 mM sodium azide, 20 mM Na phosphate pH 7.5, 37 °C, shaking at 200 rpm with Teflon beads; samples taken for negative-stain TEM at the end of the ThT assay; self-association into aggregates or fibrils

Binding result, binds:
B1, B2, B3, B4
